# Assay results from the supplement of paper PMC7877785.
# ± gives the uncertainty stated by the source.
# Assay: self-splicing fitness, log relative to wild type (ln ratio); higher = more splicing; Tetrahymena group I intron in knt gene, E. coli kanamycin selection, DiMSum; sequences stand for … in CUCUCU…GGAGGGAAAAGUUAUCAGGCAUGCACCUGGUAGCUAGUCUUUAAACCAAUAGAUUGCAUCGGUUUAAAAGGCAAGACCGUCAAAUUGCGGGAAAGGGGUCAACAGCCGUUCAGUACCAAGUCUCAGGGGAAACUUUGAGAUGGCCUUGCAAAGGGUAUGGUAAUAAGCUGACGGACAUGGUCCUAACCACGCAGCCAAGUCCUAAGUCAACAGAUCUUCUGUUGAUAUGGAUGCAGUUCACAGACUAAAUGUCGGUCGGGGAAGAUGUAUUCUUCUCAUAAGAUAUAGUCGGACCUCUCCUUAAUGGGAGCUAGCGGAUGAAGUGAUGCAACACUGGAGCCGCUGGGAACUAAUUUGUAUGCGAAAGUAUAUUGAUUAGUUUUGGAGUACUCGUGGUCG
# How it was run: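 Fitness was computed with DiMSum as the error-weighted combination of replicate fold changes, kanamycin versus none, each normalised to wild type. The library randomised all eight intron nucleotides of the P1ex region, with the intron placed in the knt kanamycin-resistance gene on pET-22b(+) in E. coli BL21(DE3). Six replicate transformations were grown overnight at 37°C or 30°C on LB agar with or without 25 μg/mL kanamycin, plus 100 μg/mL carbenicillin, 50 μM IPTG and 0.2% rhamnose. Pooled colonies were amplicon-sequenced on an Illumina HiSeq 2500.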
Sequence,self-splicing fitness (ln) (30 °C),self-splicing fitness (ln) (37 °C)
GCCAAGCAAUAUUACGGGUA,-0.958 ± 0.052,-0.102 ± 0.062
GCCAAGCAAUAUUACGGUAC,-2.01 ± 0.13,-0.941 ± 0.13
GCCAAGCAAUAUUACGGUAG,-3.67 ± 0.22,-2.82 ± 0.18
GCCAAGCAAUAUUACGUACU,-1.15 ± 0.098,-0.739 ± 0.12
GCCAAGCAAUAUUACGUCCC,-0.579 ± 0.15,-0.607 ± 0.3
GCCAAGCAAUAUUACGUCCG,-2.19 ± 0.33,-1.6 ± 0.32
GCCAAGCAAUAUUACGUCCU,-2.11 ± 0.11,-0.408 ± 0.12
GCCAAGCAAUAUUACGUGAA,-0.726 ± 0.068,0.0387 ± 0.09
GCCAAGCAAUAUUACGUGGG,-2.97 ± 0.1,-3.25 ± 0.13
GCCAAGCAAUAUUACGUGUU,-0.889 ± 0.049,-0.309 ± 0.06
GCCCAGCAAUAUUACGAGCC,-3.1 ± 0.24,-0.756 ± 0.15
GCCCAGCAAUAUUACGAUAA,-2.26 ± 0.11,-1.57 ± 0.13
GCCCAGCAAUAUUACGCAAC,-2.19 ± 0.091,-0.000822 ± 0.095
GCCCAGCAAUAUUACGCAUG,-3.92 ± 0.33,-2.24 ± 0.38
GCCCAGCAAUAUUACGCUAC,-3.18 ± 0.21,-2.72 ± 0.29
GCCCAGCAAUAUUACGCUAG,-3.11 ± 0.18,-2.34 ± 0.17
GCCCAGCAAUAUUACGCUCC,-0.416 ± 0.11,-0.675 ± 0.12
GCCCAGCAAUAUUACGGACU,-2.51 ± 0.16,-0.873 ± 0.21
GCCCAGCAAUAUUACGGCAA,-2.55 ± 0.19,-0.273 ± 0.11
GCCCAGCAAUAUUACGGCCC,-1.09 ± 0.18,-0.738 ± 0.32
GCCCAGCAAUAUUACGGCGA,-0.6 ± 0.082,-0.337 ± 0.1

Sequence,self-splicing fitness (ln) (30 °C),self-splicing fitness (ln) (37 °C)
GCCCAGCAAUAUUACGGCUG,-4.14 ± 0.2,-2.22 ± 0.15
GCCCAGCAAUAUUACGGGGA,-0.813 ± 0.082,-0.181 ± 0.099
GCCCAGCAAUAUUACGUAAG,-1.15 ± 0.072,-0.871 ± 0.1
GCCCAGCAAUAUUACGUACU,-0.0223 ± 0.1,-0.765 ± 0.15
GCCCAGCAAUAUUACGUAGC,-0.413 ± 0.07,-0.216 ± 0.079
GCCCAGCAAUAUUACGUCGU,-0.113 ± 0.066,0.0609 ± 0.072
GCCCAGCAAUAUUACGUGGC,-3.51 ± 0.22,-1.39 ± 0.19
GCCCAGCAAUAUUACGUGGU,-4 ± 0.18,-1.9 ± 0.14
GCCCAGCAAUAUUACGUUAC,-2.2 ± 0.083,-0.962 ± 0.087
GCCGAGCAAUAUUACGAAAC,-2.15 ± 0.22,-1.13 ± 0.17
GCCGAGCAAUAUUACGAGCU,-2.84 ± 0.26,-3.15 ± 0.33
GCCGAGCAAUAUUACGAUAU,-2.51 ± 0.12,-1.46 ± 0.11
GCCGAGCAAUAUUACGAUGC,-0.994 ± 0.088,-0.352 ± 0.096
GCCGAGCAAUAUUACGCAGG,-3.43 ± 0.25,-4.04 ± 0.42
GCCGAGCAAUAUUACGCCAC,-2.11 ± 0.34,–
GCCGAGCAAUAUUACGCCCC,-1.58 ± 0.37,–
GCCGAGCAAUAUUACGCGCG,-2.53 ± 0.25,–
GCCGAGCAAUAUUACGCUCG,-2.94 ± 0.27,-2.02 ± 0.26
GCCGAGCAAUAUUACGCUUA,-1.21 ± 0.072,-0.233 ± 0.089
GCCGAGCAAUAUUACGGAAU,-1.1 ± 0.09,-0.698 ± 0.11
GCCGAGCAAUAUUACGGAGU,-2.42 ± 0.18,-1.56 ± 0.12

Sequence,self-splicing fitness (ln) (30 °C),self-splicing fitness (ln) (37 °C)
GCCGAGCAAUAUUACGGAUC,-0.703 ± 0.074,-0.376 ± 0.11
GCCGAGCAAUAUUACGGUCG,-3.63 ± 0.21,–
GCCGAGCAAUAUUACGGUCU,-2.23 ± 0.13,-2.26 ± 0.24
GCCGAGCAAUAUUACGGUUA,-0.775 ± 0.071,-0.0707 ± 0.07
GCCGAGCAAUAUUACGGUUU,-2.38 ± 0.098,-0.815 ± 0.095
GCCGAGCAAUAUUACGUAAA,-2.41 ± 0.14,-1.36 ± 0.17
GCCGAGCAAUAUUACGUACU,-2.15 ± 0.17,-1.23 ± 0.18
GCCGAGCAAUAUUACGUCAA,–,-2.36 ± 0.33
GCCGAGCAAUAUUACGUCAC,–,-1.57 ± 0.24
GCCGAGCAAUAUUACGUCCU,-2.96 ± 0.14,-0.795 ± 0.13
GCCUAGCAAUAUUACGAAAG,-4.21 ± 0.24,-1.07 ± 0.18
GCCUAGCAAUAUUACGAAGU,-0.618 ± 0.1,-0.808 ± 0.12
GCCUAGCAAUAUUACGAGAU,-1.88 ± 0.12,-0.45 ± 0.11
GCCUAGCAAUAUUACGAGCG,-1.38 ± 0.1,0.0723 ± 0.13
GCCUAGCAAUAUUACGAGGA,-0.444 ± 0.06,-0.065 ± 0.067
GCCUAGCAAUAUUACGAGUA,-1.7 ± 0.093,-1.88 ± 0.085
GCCUAGCAAUAUUACGAGUU,-1.58 ± 0.061,-0.309 ± 0.078
GCCUAGCAAUAUUACGAUGC,-1.01 ± 0.081,0.0478 ± 0.13
GCCUAGCAAUAUUACGAUUG,-2.49 ± 0.23,-2.32 ± 0.26
GCCUAGCAAUAUUACGCACC,-0.962 ± 0.26,-0.41 ± 0.21
